The target in assay [1] is phosphorylated β2V2R (pβ2V2R): N-terminal Flag-tagged T4 lysozyme fusion-β2V2R (β2AR residues 1–341 fused to V2R residues 328–372) (UniProt P07550).
For assay [2], the system named is Gi-mediated inhibition of adenylyl cyclase (D2R, M2R). Put plainly: GloSensor cAMP Gi activity assay at D2R or M2R. It is filed as cell-based. To be noted: modulators 50 μM, 15 min; PTX 100 ng/mL overnight; forskolin 2 μM. The procedure:
Gi-mediated inhibition of adenylyl cyclase was assessed using the GloSensor cAMP bioluminescence biosensor (Promega). HEK293 cells were transiently transfected with D2R or M2R together with the GloSensor cAMP reporter construct, using FuGENE 6 per the manufacturer’s protocol. Cells were seeded into poly-D-lysine-coated white clear-bottom 96-well plates at 60,000 cells per well and cultured for 24 h. GloSensor reagent was added per the manufacturer’s instructions and cells were equilibrated for 1 h at room temperature. Where indicated, pertussis toxin (PTX; 100 ng ml^−1) was applied overnight as a positive control for Gi blockade. Compounds (Cmpd-5, Cmpd-46 or Cmpd-64; 50 μM) or vehicle (DMSO) in HBSS supplemented with 20 mM HEPES (pH 7.4) and 0.05% BSA were applied for 15 min at room temperature. Cells were stimulated with forskolin (2 μM, 5 min), followed by concentration-response stimulation with quinpirole (D2R) or acetylcholine (M2R). Luminescence was recorded every 5 min over 30 min using a CLARIOstar microplate reader (BMG Labtech). Forskolin-stimulated cAMP, quantified at 10 min after agonist addition, was normalized to the maximal forskolin response per condition. Gi activity was derived from the inhibitory plateau and expressed as a percentage of the DMSO plus agonist control.

The target of assay [3] is β2V2R fused to the ProLink tag (inactive portion of β-galactosidase), in U2OS PathHunter cells. Briefly: split reporter (BiFC, NanoBiT); PathHunter β-galactosidase enzyme fragment complementation in U2OS cells co-expressing βARR2 (enzyme acceptor) and β2V2R (ProLink); modulators or vehicle 30 min, then isoproterenol 60 min at 37 °C.

Consider three substances from paper PMC13489962, “Small-molecule modulation of β-arrestins” (Nature, 2026).

βARR2 fused to the enzyme acceptor (EA) portion of β-galactosidase, in U2OS PathHunter cells, sequence (P32121 whole entry, the tested form may be a part): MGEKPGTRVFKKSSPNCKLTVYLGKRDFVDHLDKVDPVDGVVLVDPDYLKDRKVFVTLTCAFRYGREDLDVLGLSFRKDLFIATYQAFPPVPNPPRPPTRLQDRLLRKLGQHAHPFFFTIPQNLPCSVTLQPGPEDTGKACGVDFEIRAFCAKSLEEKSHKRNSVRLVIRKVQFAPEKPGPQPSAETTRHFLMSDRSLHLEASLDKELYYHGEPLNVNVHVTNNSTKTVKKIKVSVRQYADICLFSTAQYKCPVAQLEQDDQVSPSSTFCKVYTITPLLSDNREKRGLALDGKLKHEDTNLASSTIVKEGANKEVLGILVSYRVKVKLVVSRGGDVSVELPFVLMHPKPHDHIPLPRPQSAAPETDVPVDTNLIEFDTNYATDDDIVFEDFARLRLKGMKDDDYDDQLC
β-arrestin2 (βARR2), rat, C terminus truncated at amino acid 394, sequence (P29067 1-394): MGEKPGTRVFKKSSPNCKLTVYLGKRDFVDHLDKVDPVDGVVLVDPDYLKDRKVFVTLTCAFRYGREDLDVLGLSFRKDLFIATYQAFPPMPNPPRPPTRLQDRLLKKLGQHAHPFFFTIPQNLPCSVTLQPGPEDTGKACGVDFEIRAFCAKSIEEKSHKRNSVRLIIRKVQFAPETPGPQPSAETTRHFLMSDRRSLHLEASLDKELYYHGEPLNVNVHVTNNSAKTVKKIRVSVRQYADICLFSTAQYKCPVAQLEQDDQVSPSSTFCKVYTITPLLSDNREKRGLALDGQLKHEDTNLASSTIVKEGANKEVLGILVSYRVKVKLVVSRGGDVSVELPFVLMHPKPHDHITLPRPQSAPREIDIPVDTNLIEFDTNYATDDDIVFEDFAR

Turning to “β-arrestin2 (βARR2), rat, C terminus truncated at amino acid 394 (from UniProt P29067 1-394) (domain or fragment)”, in assay [1], the reduction of β-arrestin-mediated high-affinity [^3H]-Fen binding to pβ2V2R by Cmpd-5, Cmpd-46 and Cmpd-64, each (100 μM) worked out at 40%.
For the substance pertussis toxin, the “effect on agonist-induced, Gi-mediated cAMP reduction at D2R or M2R” value in assay [2] is “abolished this response entirely”.
Consider “βARR2 fused to the enzyme acceptor (EA) portion of β-galactosidase, in U2OS PathHunter cells (from UniProt P32121 1-409) (natural protein)”, for which, in assay [3], the reduction of Emax of Iso-induced recruitment with 50 μM Cmpd-46 was 77.3% and the reduction of Emax of Iso-induced recruitment with 50 μM Cmpd-64 amounted to 74.4%.
